Measured values: paper doi:10.1101/2024.03.12.584565 (bioRxiv, 2024)

Tests used:
Test in all cases: pull-down
[1] = biological target: T1, Flag-tagged Pds5b-WT, treated with Nek2a and Cdk1/2-cyclin A2 in vitro (human, UniProt Q9NTI5 1-1447)
T1 sequence: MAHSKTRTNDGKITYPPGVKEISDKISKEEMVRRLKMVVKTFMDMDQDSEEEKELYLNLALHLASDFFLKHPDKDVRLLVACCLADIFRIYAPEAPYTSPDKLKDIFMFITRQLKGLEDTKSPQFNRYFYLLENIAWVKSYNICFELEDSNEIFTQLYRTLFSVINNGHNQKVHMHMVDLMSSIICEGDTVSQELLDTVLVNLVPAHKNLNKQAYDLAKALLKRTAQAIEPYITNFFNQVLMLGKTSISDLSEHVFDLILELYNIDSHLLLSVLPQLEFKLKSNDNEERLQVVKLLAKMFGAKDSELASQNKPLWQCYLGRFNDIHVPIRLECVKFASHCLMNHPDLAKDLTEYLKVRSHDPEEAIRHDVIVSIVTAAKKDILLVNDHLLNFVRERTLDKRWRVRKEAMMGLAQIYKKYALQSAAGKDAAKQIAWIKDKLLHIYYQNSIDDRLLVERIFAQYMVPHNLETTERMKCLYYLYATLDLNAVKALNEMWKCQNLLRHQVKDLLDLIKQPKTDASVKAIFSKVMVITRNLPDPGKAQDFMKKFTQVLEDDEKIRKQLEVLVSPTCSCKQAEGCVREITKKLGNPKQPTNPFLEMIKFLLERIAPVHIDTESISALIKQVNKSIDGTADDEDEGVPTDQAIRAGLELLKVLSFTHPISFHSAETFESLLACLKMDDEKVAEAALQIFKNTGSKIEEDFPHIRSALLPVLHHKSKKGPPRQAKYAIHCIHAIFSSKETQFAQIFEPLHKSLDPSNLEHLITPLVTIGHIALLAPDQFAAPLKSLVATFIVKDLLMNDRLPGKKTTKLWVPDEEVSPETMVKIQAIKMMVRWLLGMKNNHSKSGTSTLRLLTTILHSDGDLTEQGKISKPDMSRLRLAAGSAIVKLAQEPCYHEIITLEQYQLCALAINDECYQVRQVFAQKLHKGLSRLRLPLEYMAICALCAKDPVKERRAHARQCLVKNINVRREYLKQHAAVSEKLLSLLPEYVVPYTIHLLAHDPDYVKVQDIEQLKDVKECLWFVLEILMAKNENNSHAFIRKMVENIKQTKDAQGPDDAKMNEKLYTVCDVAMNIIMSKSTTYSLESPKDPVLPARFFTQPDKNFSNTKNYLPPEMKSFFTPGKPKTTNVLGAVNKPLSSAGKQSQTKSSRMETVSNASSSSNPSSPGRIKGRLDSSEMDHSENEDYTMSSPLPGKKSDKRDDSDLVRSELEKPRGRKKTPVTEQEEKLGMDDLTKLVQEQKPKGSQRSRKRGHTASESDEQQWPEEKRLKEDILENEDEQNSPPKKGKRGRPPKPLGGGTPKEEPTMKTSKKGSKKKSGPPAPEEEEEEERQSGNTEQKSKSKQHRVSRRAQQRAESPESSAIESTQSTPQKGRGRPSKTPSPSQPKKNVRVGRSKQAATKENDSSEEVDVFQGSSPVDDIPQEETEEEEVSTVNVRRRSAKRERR

[2] = biological target: T2, Flag-tagged Pds5b, co-expressed with Nek2aΔMR (human, UniProt Q9NTI5 1-1447)
T2 sequence: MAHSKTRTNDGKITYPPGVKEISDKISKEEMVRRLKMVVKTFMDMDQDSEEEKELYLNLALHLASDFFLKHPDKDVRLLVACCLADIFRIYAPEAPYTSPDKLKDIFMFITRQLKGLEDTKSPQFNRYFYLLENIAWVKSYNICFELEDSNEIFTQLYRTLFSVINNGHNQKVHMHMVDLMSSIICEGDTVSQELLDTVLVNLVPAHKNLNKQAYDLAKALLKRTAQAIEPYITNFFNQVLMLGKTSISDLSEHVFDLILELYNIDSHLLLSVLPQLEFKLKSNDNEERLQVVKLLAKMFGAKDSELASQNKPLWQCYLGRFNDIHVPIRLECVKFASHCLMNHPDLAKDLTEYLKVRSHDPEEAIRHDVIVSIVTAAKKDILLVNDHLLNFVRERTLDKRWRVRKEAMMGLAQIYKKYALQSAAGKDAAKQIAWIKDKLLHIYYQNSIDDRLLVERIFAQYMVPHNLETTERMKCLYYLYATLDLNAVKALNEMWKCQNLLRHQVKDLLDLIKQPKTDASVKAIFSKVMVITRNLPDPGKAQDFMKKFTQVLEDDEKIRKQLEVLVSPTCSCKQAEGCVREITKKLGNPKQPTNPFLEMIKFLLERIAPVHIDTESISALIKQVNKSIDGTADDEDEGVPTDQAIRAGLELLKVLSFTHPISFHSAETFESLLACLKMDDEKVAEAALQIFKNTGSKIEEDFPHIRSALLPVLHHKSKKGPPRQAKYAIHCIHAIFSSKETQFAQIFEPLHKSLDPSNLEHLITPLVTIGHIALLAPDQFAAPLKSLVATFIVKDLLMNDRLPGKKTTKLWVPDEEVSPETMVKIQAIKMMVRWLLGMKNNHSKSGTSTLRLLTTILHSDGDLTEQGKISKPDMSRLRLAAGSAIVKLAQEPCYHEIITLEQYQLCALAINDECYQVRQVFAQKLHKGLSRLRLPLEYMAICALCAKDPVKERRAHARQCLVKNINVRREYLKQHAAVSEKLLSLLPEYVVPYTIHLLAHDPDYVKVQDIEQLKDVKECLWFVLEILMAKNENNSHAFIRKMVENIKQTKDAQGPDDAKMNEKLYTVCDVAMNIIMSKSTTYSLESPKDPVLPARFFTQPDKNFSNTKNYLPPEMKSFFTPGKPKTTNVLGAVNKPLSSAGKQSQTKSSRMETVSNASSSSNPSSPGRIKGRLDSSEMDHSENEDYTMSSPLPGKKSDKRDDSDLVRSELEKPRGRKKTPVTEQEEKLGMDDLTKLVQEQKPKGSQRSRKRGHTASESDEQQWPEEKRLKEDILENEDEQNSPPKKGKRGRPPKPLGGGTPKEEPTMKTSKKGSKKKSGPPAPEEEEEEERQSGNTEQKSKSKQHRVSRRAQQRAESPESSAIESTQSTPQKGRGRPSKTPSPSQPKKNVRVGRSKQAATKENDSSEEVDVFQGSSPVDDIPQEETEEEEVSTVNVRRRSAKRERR

[3] = biological target: T3, Flag-tagged Pds5b, co-expressed with Nek2aΔMR and Δ86-cyclin A2 (human, UniProt Q9NTI5 1-1447)
T3 sequence: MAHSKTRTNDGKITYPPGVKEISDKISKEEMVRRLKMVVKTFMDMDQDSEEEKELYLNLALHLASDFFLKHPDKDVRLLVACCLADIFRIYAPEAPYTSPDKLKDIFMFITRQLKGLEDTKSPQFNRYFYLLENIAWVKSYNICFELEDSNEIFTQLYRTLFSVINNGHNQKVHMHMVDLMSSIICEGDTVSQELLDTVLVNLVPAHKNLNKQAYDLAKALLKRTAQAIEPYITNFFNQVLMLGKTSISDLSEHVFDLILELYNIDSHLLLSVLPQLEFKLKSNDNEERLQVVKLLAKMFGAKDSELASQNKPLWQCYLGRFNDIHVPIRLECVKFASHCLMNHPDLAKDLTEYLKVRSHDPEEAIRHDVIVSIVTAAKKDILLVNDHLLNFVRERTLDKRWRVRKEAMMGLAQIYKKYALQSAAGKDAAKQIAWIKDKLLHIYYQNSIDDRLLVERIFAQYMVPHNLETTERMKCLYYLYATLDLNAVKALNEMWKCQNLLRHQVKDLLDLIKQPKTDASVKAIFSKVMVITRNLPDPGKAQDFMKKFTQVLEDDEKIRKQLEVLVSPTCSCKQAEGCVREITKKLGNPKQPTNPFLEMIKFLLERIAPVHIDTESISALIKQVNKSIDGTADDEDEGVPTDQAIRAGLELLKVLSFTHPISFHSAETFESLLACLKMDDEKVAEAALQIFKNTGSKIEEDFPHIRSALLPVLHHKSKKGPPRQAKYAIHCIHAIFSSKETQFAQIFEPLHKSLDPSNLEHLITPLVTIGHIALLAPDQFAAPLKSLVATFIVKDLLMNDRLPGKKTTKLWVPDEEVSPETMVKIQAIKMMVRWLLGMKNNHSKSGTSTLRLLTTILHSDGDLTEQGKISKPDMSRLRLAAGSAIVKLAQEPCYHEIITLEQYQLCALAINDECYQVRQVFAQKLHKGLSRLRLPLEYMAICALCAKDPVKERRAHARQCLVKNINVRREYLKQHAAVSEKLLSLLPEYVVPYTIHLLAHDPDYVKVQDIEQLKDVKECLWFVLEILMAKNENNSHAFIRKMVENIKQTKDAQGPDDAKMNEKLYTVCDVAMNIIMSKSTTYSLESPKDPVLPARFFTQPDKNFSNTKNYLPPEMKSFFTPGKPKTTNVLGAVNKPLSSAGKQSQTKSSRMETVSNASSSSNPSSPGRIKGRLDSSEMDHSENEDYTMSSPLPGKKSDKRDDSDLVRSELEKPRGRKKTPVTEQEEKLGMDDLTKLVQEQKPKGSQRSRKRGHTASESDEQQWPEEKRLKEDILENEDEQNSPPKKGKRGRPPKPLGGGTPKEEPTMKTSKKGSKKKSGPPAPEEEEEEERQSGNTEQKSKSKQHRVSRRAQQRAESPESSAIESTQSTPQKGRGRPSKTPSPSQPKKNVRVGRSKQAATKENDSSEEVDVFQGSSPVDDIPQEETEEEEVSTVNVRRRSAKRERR

[4] = biological target: T4, Flag-tagged Pds5b-Ser1161,1166Ala (2A), phosphorylated by Nek2a in vitro (human, UniProt Q9NTI5 1-1447, Ser1161,1166Ala | Ser1161,1166Ala)
T4 sequence: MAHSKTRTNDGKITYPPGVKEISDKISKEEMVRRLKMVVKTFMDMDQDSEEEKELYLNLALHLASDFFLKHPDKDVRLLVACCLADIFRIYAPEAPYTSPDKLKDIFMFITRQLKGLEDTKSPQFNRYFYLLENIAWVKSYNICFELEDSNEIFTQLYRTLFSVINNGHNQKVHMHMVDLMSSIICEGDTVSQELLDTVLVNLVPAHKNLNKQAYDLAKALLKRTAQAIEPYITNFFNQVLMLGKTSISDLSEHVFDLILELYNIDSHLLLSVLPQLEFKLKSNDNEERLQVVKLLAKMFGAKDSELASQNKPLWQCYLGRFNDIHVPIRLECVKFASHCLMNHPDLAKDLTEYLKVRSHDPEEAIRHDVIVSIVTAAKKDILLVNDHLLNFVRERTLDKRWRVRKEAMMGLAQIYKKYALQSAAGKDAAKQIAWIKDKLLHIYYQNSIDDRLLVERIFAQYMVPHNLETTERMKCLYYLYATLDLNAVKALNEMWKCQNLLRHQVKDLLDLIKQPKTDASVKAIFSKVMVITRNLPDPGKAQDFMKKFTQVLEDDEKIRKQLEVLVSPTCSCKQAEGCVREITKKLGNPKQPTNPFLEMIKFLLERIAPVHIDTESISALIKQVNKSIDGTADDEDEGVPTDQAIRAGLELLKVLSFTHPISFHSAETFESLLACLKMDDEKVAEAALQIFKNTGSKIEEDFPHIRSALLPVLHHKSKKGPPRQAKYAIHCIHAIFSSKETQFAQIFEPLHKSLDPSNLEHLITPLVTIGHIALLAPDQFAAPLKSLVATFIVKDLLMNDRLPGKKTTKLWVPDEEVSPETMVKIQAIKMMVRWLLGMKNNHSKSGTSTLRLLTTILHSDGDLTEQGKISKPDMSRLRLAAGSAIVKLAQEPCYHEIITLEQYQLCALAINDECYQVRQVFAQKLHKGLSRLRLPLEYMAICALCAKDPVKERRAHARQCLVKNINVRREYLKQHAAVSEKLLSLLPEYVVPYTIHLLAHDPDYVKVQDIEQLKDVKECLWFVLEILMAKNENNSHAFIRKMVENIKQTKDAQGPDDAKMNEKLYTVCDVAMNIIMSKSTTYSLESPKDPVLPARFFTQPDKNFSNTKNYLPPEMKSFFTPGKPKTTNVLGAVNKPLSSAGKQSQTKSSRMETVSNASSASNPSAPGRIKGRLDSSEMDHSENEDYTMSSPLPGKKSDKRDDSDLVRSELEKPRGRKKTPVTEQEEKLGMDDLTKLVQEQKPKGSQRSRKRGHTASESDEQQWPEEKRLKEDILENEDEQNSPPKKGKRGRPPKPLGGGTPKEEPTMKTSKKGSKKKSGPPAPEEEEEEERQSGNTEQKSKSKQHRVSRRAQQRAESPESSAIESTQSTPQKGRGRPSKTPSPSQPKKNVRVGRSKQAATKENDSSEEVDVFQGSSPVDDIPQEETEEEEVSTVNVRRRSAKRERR

Measured: binding result

B1: recombinant human Wapl (natural protein)
chain: MTSRFGKTYSRKGGNGSSKFDEVFSNKRTTLSTKWGETTFMAKLGQKRPNFKPDIQEIPKKPKVEEESTGDPFGFDSDDESLPVSSKNLAQVKCSSYSESSEAAQLEEVTSVLEANSKISHVVVEDTVVSDKCFPLEDTLLGKEKSTNRIVEDDASISSCNKLITSDKVENFHEEHEKNSHHIHKNADDSTKKPNAETTVASEIKETNDTWNSQFGKRPESPSEISPIKGSVRTGLFEWDNDFEDIRSEDCILSLDSDPLLEMKDDDFKNRLENLNEAIEEDIVQSVLRPTNCRTYCRANKTKSSQGASNFDKLMDGTSQALAKANSESSKDGLNQAKKGGVSCGTSFRGTVGRTRDYTVLHPSCLSVCNVTIQDTMERSMDEFTASTPADLGEAGRLRKKADIATSKTTTRFRPSNTKSKKDVKLEFFGFEDHETGGDEGGSGSSNYKIKYFGFDDLSESEDDEDDDCQVERKTSKKRTKTAPSPSLQPPPESNDNSQDSQSGTNNAENLDFTEDLPGVPESVKKPINKQGDKSKENTRKIFSGPKRSPTKAVYNARHWNHPDSEELPGPPVVKPQSVTVRLSSKEPNQKDDGVFKAPAPPSKVIKTVTIPTQPYQDIVTALKCRREDKELYTVVQHVKHFNDVVEFGENQEFTDDIEYLLSGLKSTQPLNTRCLSVISLATKCAMPSFRMHLRAHGMVAMVFKTLDDSQHHQNLSLCTAALMYILSRDRLNMDLDRASLDLMIRLLELEQDASSAKLLNEKDMNKIKEKIRRLCETVHNKHLDLENITTGHLAMETLLSLTSKRAGDWFKEELRLLGGLDHIVDKVKECVDHLSRDEDEEKLVASLWGAERCLRVLESVTVHNPENQSYLIAYKDSQLIVSSAKALQHCEELIQQYNRAEDSICLADSKPLPHQNVTNHVGKAVEDCMRAIIGVLLNLTNDNEWGSTKTGEQDGLIGTALNCVLQVPKYLPQEQRFDIRVLGLGLLINLVEYSARNRHCLVNMETSCSFDSSICSGEGDDSLRIGGQVHAVQALVQLFLERERAAQLAESKTDELIKDAPTTQHDKSGEWQETSGEIQWVSTEKTDGTEEKHKKEEEDEELDLNKALQHAGKHMEDCIVASYTALLLGCLCQESPINVTTVREYLPEGDFSIMTEMLKKFLSFMNLTCAVGTTGQKSISRVIEYLEHC
binds: all assays above
